Experimental data: US6589750B2, “Therapeutic use of the SMR1 protein, the SMR1 maturation products, specifically the QHNPR pentapeptide as well as its biologically active derivatives” (Institut Pasteur, priority 1997, dated 2003)
Square brackets hold non-standard residues; d marks the D form. Ends that are not written are not given here. pGlu = O=C1CC[C@@H](C(=O)O)N1

How the values were obtained:
[1] = Chromatographic characterization of radioactive peptide uptake by tissues (methanol extraction, RP-HPLC); assay type: in vivo, rat
Experimental: The chromatographic characteristics of the labeled compound associated, in vivo, to target organs were assessed by HPLC.
At selected time points (2 and 180 min.) after administration of tritiated pentapeptide, the anesthetized rats were sacrificed (cardiac blood puncture) and tissues quickly removed on ice. The tissues were immediately homogenized at 4° C. in 5-10 volumes of 0.1 M chlorhydric acid using a potter homogenizer (demineralization of bone tissue was realized after 24-48 h at 4° C. in guanidium hydrochloride and EDTA pretreatment, 4 M and 0.25 M final concentration, respectively). Homogenates were centrifuged for 30 min. at 4° C. and 15,000 g. To determine total radioactivity, aliquots of the supernatant solution were added to 50 volumes of Biofluor (NEN, Dupont de Nemours, France) and counted in a liquid scintillation counter.
To determine the radioactivity in the pentapeptide fraction, aliquots of the tissue extracts were submitted to a methanol-extraction procedure (Rougeot et al., 1994) after neutralization with Tris/HCl pH 8.5 containing 16 mM DTPA (DiethyleneTriaminePenta-Acetic acid, Sigma, France). The methanol phase was removed from the supernatant by partial evaporation, then lyophilization and the reconstituted aqueous phase containing 16 mM DTPA was applied to ODS AQ column (HPLC RP C18 chromatography) (AIT, France). Elution with a linear gradient of 0.1% trifluoro acetic (TFA) in water/0.1% TFA in acetonitrile (Merck, France) from 100/0 (vol/vol) to 50/50 (vol/vol) was performed for 30 min. at a flow rate of 1 ml/min. Fractions were collected every 60 sec. and analyzed for radioactivity using a liquid scintillation counter.

[2] = Pentapeptide metabolic and pharmacokinetic study after i.v. bolus of tritiated pentapeptide; assay type: in vivo, rat
Experimental: The in vivo time course of distribution, metabolism and elimination of the pentapeptide was investigated in anesthetized adult male rats using physiological concentrations of circulating tritiated pentapeptide.
Anesthetized male rats were given a bolus intravenous injection of 170 pmoles or 110 ng tritiated pentapeptide diluted in 100 μl PBS Dulbecco's. Blood was collected in tubes containing a mixture of peptidase inhibitors described above, via a silastic catheter implanted into the external jugular vein. Blood was withdrawn just before and 2, 4, 6, 8, 10, 20, 30, 45, 60, 90 and 120 min. after peptide administration. Two milliliters of blood per rat were taken in all and the entire urinary bladder content was collected at a last selected point.
The biological samples were submitted to centrifugation and Parapak Q extraction conditions, as described above. Chromatrography using HPLC procedure described above and in the reference (Rougeot et al., 1994) was then applied to each extracted sample. The ODS AQ RP-C18 was used for identification of amino-terminal metabolites and Pep RPC HR C18 (Pharmacia, France) for identification of carboxyl-terminal metabolites. The radioactivity content of samples before and after chromatographic separations was determined using a beta counter (Kontron, MR300).

[3] = test system: pentapeptide binding sites; assay: Cellular localization of 3H-pentapeptide binding sites by light microscopic autoradiography, in vivo radiolabeling; design: species or system rat
Experimental: The cellular-site localization for physiological concentrations of labeled pentapeptide was investigated by paraffin- or resin-section microscopic autoradiography procedure.
Sixty minutes after ^3H-pentapeptide (555 KBq, 160 ng or 250 pmoles) i.v. administration, the anesthetized male rats were perfused via the jugular veins with ice-cold Krebs Ringer Bicarbonate Glucosed buffer and then 0.5% paraformaldehyde/0.5% glutaraldehyde fixative PBS buffer (plus glucose 1.6%, CaCl2 0.002% and DMSO 1%) (50 ml/5 min. for each). Tissues were rapidly removed and harvested for paraffin sectioning (Paraplast plus-Sherwood medical, OSI, France) or for resin sectioning (histo-resin Leica, France). All sections were cut at 5 microns (Reichert Jung for paraffin and RM2155 Leica for resin sections) and mounted on Superfrost/Plus glass slides (non gelatin-coated). Paraffin was removed with xylene, and sections were carried through a descending, then an ascending ethanol series (from 100 to 50%, VN and reverse). Dried sections were then processed for light microscope autoradiography by attaching nuclear emulsion-coated (Kodak, NTB2, diluted 1:1 with distilled water) coverslips to them. After air drying for 2 hrs at room temperature the autoradiographs were exposed for 6 to 10 weeks in light-tight boxes at 4° C. Radiosensitive coverslips were developed in Kodak D19 (3 min.) developer and fixed in Kodak fixer (3 min.) Sections were counterstained with Harris' hematoxylin (Prolabo, France) and Toluidine blue (Sigma, France), dehydrated and mounted in Eukitt medium. The tissue and overlying silver grains were viewed and photographed with a Leica photomicroscope equipped with bright-field optics (DMRD Leitz, Leica).

peptide binding sites = assay: In vivo displacement experiments with coinjection of 100-fold excess of unlabeled peptide; design: species or system rat
Text: Biological receptor sites have two essential characteristics that allow specific binding to be identified, in vivo; they have a high affinity for the ligand and the binding is saturable (Whitcomb et al., 1993). Therefore, displacement experiments, using parallel systemic administration of an excess of the corresponding unlabeled peptide has been performed. Furthermore, the specific cellular localization of labeled pentapeptide to target tissues has been identified by section microscopic autoradiography.
The tritium activity was determined as counts/mm^2.
In the case of radioactive quantification of organ sections or acid extracts, using a liquid scintillation counter (MR300 Kontron), the tritium activity was determined as cpm/mg protein. Protein concentration was determined by the Bradford method (Bradford et al., 1976).

[4] = rat, in vivo
Experimental: Labeled compound i.e. 6.66 MBq, 3 nmoles or 2 mg for whole body autoradiography (WBA) and 370-555 KBq, 170-250 pmoles or 110-160 ng for the pharmacokinetic and cellular-site distribution studies was diluted in 100-200 ml of phosphate-buffered saline (PBS Dulbecco's, Bio Media, France) and administered intravenously into the jugular vein of anesthetized rats (halothan for WBA or pentobarbital for all the other experiments).
The five week-old rats were sacrificed under halothane, at 90 sec., 3, 60 and 240 min. after i.v. injection of 3 nmoles (6.66 MBq or 2 μg) of tritiated pentapeptide. At the selected time, the restrained animal was immediately immersed in a −80° C. mixture of dry ice and isopentane, to prevent artefactual tracer redistribution. After 48 hours in self-sealing plastic stored at −30° C., the animal was then blocked in mounting medium. Whole body sagittal sections (20 mm) of the frozen rat were made at −30° C. with a cryostat (whole body slicing microtome Leitz 400 with a chest mobil freezer Leitz O M, Leica, France). […]
The quantitative determination of the radioactivity in various organ sections was carried out by using a gaseous detector of β-particles, which has recently been developed (Charpak et al., 1989; Tribollet et al., 1991). […] The number of counts per pixel was recorded in the β imager 2200 (Biospace, France) with a surface detector of 20×20 cm^2, followed by computer-assisted image analysis with the β Vision program using a HP Vectra computer. The tritium activity was determined as counts/mm^2. The linearity of this method of detection allowed measurement of the non specific binding of ^3H-pentapeptide, measured in various structures or compartments within the section with apparent non binding sites for the peptide (background tissues, e.g. muscle and cardiac blood except brain and spinal cord) or in the same labeled structure, in displacement experiments. […]
Assessment of tissue peptide targeting was accomplished by a β-radio imager quantification (FIG. 2). […]

anti-pentapeptide serum = assay: competitive liquid phase RIA, unlabelled standard displaces 125I-labelled pentapeptide from the antiserum
[5] = 180 min after injection, DTPA extraction
[6] = 60 min, 100-fold excess unlabeled peptide

Q: Which results are given for “QHNPR (not fully specified (residue 4)) [pentapeptide]”?
A: tissue radioactivity extracted from acid homogenates by methanol ([1]; 5-20 min survival time after 3 nmoles 3H-pentapeptide): 72±4%; radioactive peptide fraction extracted by methanol with DTPA (16 mM) ([1]; 180 min after injection): 53±9%; radioactive extract representing metabolites [1, 5]: 8±6%; radioactive extract representing undissociated peptide complex [1, 5]: 29±14%; radioactivity recovered in RP-HPLC peak of free pentapeptide ([1]; 180 min after injection, DTPA extraction, target organs): 52±8%; radioactivity eliminated through glomerular filtration ([2]; anesthetized rats, over a 60 min period, 170 pmoles injected): 6 pmol; distribution volume ([2]; male rat): 35-40 ml/100 g. body weight; pentapeptide-binding substance complex as share of circulating peptide fraction ([2]; plasma, dissociated by acidic pH treatment): approximately 45%; time from which plasma concentration is close to basal level ([2]; single i.v. injection of 110 ng tritiated pentapeptide): 30 min; time to maximal plasma level ([2]; single i.v. injection of 110 ng tritiated pentapeptide, two male rats): ≤ 2 min; urine radioactivity that is pentapeptide metabolites ([2]; urinary bladder content): Approximately 80%; infused pentapeptide metabolized in the bloodstream ([2]; within 4 min, proteolysis from the amino-terminal part): 35%; cellular localization of label in submandibular tissue ([3]; 60 min post-injection): no selective cell association of label was identifiable; cellular localization of silver grains in glandular gastric mucosa ([3]; 60 min post-injection): over the chief or peptic cells; cellular localization of silver grains in pancreatic tissue ([3]; 60 min post-injection): over the cells of acini; localization of silver grains in upper incisor root ([3]; 60 min post-injection): over the entire dentin layer; cellular localization of silver grains in kidney ([3]; 60 min post-injection of physiological concentration (160 ng)): over the epithelial cells of the S3 segment of the straight portion of the proximal tubules; specific labeling percentage, glandular mucosa of the stomach (peptide binding sites; [6]): 38-61%; specific labeling percentage, long bone (peptide binding sites; [6]): 29-38%; specific labeling percentage, pancreatic lobules (peptide binding sites; [6]): 37-55%; specific labeling percentage, submandibular lobules (peptide binding sites; [6]): 51-91%; displacement of 3H-pentapeptide uptake within the renal outer medullary (peptide binding sites; 60 min post-coinjection of 100-fold excess of unlabeled peptide): almost complete displacement; specific labeling percentage, kidney (peptide binding sites; FIG. 8-B, depends on analysis method (total tissue count or regional analysis)): 12 to 92%; persistence of label within target tissues [4]: > 240 min; radioactivity in intestinal content [4]: No radioactivity was found in the intestinal content; tissue to blood ratio [4]: ~2

B1: [Gln^1] pentapeptide (peptide)
peptide: QHNPR
Q: Which 50% displacement of the 125I-labelled pentapeptide (anti-pentapeptide serum) does the source give for B1 here?
A: < 570 fmol

Q: And the detection limit (80% binding) (anti-pentapeptide serum)?
A: 106 fmol

B2: [Glp^1] pentapeptide (peptide)
peptide: [pGlu]HNPR
Q: What does the source list for B2?
A: 50% displacement of the 125I-labelled pentapeptide (anti-pentapeptide serum): < 570 fmol; detection limit (80% binding) (anti-pentapeptide serum): 106 fmol
